Positions count from the first letter of the chain named.
B1: type B EBNA2 comprising amino acids 216-392 (other)
chain: GHQLSLPPHPPPHQSTPHCSSDSTGLPPPPTSYSIPSMTLSPEPLPPPAAPAHPLPGVIYDQQALPPTPGPPWWPPVRDPTPTTQTPPTNTKQGPDQGQGRGRWRGRGRSKGRGRMHKLPEPRRPGPDTSSPSMPQLSPVVSLHQGQGPENSPTPGPSTAGPVCRVTPSATPDISPI
notes: range 216-392; Prepared by in vitro transcription and translation; gene provided by Dr. Elliott Kieff; also called type B peptide
B2: wild-type EBNA2 peptide comprised of amino acids 252-425 (type A) (other)
chain: LHVPDQSMHPLTHQSTPNDPDSPEPRSPTVFYNIPPMPLPPSQLPPPAAPAQPPPGVINDQQLHHLPSGPPWWPPICDPPQPSKTQGQSRGQSRGRGRGRGRGRGKGKSRDKQRKPGGPWRPEPNTSSPSMPELSPVLGLHQGQGAGDSPTPGPSNAAPVCRNSHTATPNVSPI
notes: range 252-425; In vitro transcribed and translated, labeled with 35S-methionine; also called aa252-425 (wild-type); E2 252-425
B3: EBNA2 252-425 GP320SR (CR6) (other)
chain: B2 chain with G69S, P70R
notes: range 252-425; In vitro transcribed and translated
B4: EBNA2 252-425 PI326SR (CR6) (other)
chain: B2 chain with P75S, I76R
notes: as for B3
B5: EBNA2 252-425 SR360VD (PKC) (other)
chain: B2 chain with S109V, R110D
notes: range 252-425; In vitro transcribed and translated; also called PKC mutation
B6: EBNA2 252-425 WW323SR (CR6) (other)
chain: B2 chain with W72S, W73R
notes: as for B3
B7: EBNA2 252-425 LGL389SRT (CR7) (other)
chain: B2 chain with L138S, G139R, L140T
notes: range 252-425; In vitro transcribed and translated; also called CR7 mutation

Target: T1, CBF1/RBPJk (UniProt Q06330 1-500)
T1 construct: also called CBF1 tethering protein
T1 sequence (Q06330 whole entry): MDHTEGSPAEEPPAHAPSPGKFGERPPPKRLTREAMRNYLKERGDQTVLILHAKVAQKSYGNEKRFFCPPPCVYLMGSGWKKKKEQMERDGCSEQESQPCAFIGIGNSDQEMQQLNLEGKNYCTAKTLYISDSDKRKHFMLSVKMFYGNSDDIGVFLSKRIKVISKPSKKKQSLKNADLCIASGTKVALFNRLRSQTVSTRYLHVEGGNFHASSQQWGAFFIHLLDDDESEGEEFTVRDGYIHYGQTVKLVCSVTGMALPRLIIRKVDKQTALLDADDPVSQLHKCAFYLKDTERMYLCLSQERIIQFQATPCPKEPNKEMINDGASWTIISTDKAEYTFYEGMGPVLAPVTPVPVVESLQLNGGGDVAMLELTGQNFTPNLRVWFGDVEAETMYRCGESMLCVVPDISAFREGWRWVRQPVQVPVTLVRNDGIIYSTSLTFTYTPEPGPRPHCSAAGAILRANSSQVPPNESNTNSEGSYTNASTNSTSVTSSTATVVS
Test: EMSA with two-fold increases in peptide amount, against type A EBNA2 252-425

Q: For B1, which “fold more peptide required than type A EBNA2 for conversion of all the CBF1 to the supershifted complex” value is on record?
A: Its value is 2 fold.

Target: T1, CBF1/RBPJk
Test: EMSA supershift with heparin-agarose purified CBF1 and Cp CBF1 site probe; phosphoimager, relative to wild-type EBNA2(252-425)

Q: Which “% Complex formation” value does the source give for B2 here?
A: The value was 100%.

Q: How did the “% Complex formation” value turn out when B3 was run?
A: Its value is 90%.

Q: How did the “% Complex formation” value turn out when B4 was run?
A: Its value is 5%.

Q: With B5 as the binder, how does the “% Complex formation” value read?
A: Its value is 60%.

Q: With B6 as the binder, how does the “% Complex formation” value read?
A: The value was < 1%.

Q: B7 was tested. Which “% Complex formation” value did it give?
A: Its value is 50%.

Target: T1, CBF1/RBPJk
Test: EMSA, against wild-type EBNA2 252-425

Q: Which “fold reduction in the amounts of EBNA2/CBF1 complex formed” value does the source give for B5 here?
A: The value was ~2 fold.

Q: For B7, which “fold reduction in the amounts of EBNA2/CBF1 complex formed” value is on record?
A: The value was ~2 fold.

Source: patent US6495144 (Johns Hopkins, dated 2002)
